From patent publication US7671181B2, “Polynucleotides encoding coccidian parasite casein kinase I, a chemotherapeutic target for antiprotozoal agents” (Merck Sharp & Dohme Corp., priority 2004, dated 2010) come the findings set out here.

Read-outs that look alike come from different tables or passages of the source.

Data set [1] addresses TgCKIβ (Toxoplasma gondii, UniProt Q6QNM0). As to the kind of experiment: Casein kinase assay, recombinant FLAGTgCKIβ. It counts as biochemical. The note with it: substrate titration, 2 μM ATP; for Km: read-out: Km(app), FLAGTgCKIβ. How it is done:
(§1) Protein kinase assays—Casein kinase activity was assayed essentially as described (Donald, R. G. K. et al., 2002, supra) using 96-well phosphocellulose plates (MAPH-NOB, Millipore; Billerica, Mass.) to capture ^33P-phosphorylated peptide or casein substrates. Kinase reactions were carried out in 40 μl volumes containing 25 mM Hepes, pH 7.4, 10 mM MgCl2, 20 mM β-glycerophosphate, 1 mM DTT, 250 μM substrate, 1 mg/mL BSA, 2 μM ATP, and 0.01 μM [γ-^33P]ATP (Perkin-Elmer, 3000 Ci/mmol). […] Casein (5% solution), partially dephosphorylated α-casein and β-casein were obtained from Sigma.
(§2) A variety of commercially available peptide substrates were evaluated. From Calbiochem (San Diego, Calif.): CKI substrate (RRKDLHDDEEDEAMSITA; SEQ ID NO:13); CKII substrate (RRADDSDDDDD; SEQ ID NO:14); Syntide-2 substrate (PLARTLSVAGLPGKK; SEQ ID NO:15); CaM kinase II substrate (281-291) (MHKNETVECLK; SEQ ID NO:16). From Promega: CKI substrate (DDDEESITRR; SEQ ID NO:17) and kemptide (LRRASLG; SEQ ID NO:18). From New England Biolabs (Beverly, Mass.): CKI phosphopeptide substrate (KRRRALS(p)VASLPGL; SEQ ID NO:19), and CKII substrate (RRREEETEEE; SEQ ID NO:20). PKG assays were performed with kemptide as substrate and 10 μM cGMP. CDPK was assayed with Syntide-2 substrate and in the presence of 100 μM CaCl2.
(§3) Purification of recombinant CKI enzymes—E. coli strain BL21 Origami™ (Novagen) was transformed with FLAGTgCKIα and FLAGTgCKIβ expression vectors, and colonies were expanded into 250 mL LB cultures grown at 37° C. Expression was induced with 1 mM IPTG once cultures had reached an OD600nm of 0.3-0.5, and the transformed bacteria were harvested 4-6 hours later. Cell pellets were resuspended in 15 mL of lysis buffer containing protease inhibitors and lysates prepared as described by the supplier (Bugbuster™ reagents, Novagen). The concentration of NaCl in the lysate was adjusted to 0.5 M, and 0.5 mL of FLAG-agarose beads were added (Sigma). The mixture was allowed to rock in a Nutator mixer (Becton-Dickinson; San Jose, Calif.) for 2 hours at 4° C. The slurry was then poured into an empty column and the matrix washed with 50 mL of wash buffer (50 mM Tris-HCl, pH 7.4, 0.5M NaCl, 10% glycerol, 1 mM DTT, 1 mM EDTA). Enzyme was eluted with 5 mL of 0.4 mg/mL FLAG peptide (Sigma) in NaCl-free wash buffer and concentrated with a centrifuge filtration unit (Amicon Ultra®, 10 kDa cut-off, Millipore). Protein was measured with a micro-BCA reagent (Pierce) following a TCA-sodium deoxycholate step to remove residual FLAG peptide (Brown et al., 1989, Anal. Biochem. 180:136-139). Using this procedure, and SDS-PAGE analysis, the yield of FLAGTgCKIβ was estimated as ˜200 μg of enzyme with >90% purity. Purification of FLAGTgCKIα was much less efficient with only about 1 μg of ˜10% pure enzyme obtained per 250 mL bacterial culture.
Preparations of FLAGTgCKIα and FLAGTgCKIβ were purified further on a SMART system FPLC 0.1 mL MonoQ anion exchange column (Pharmacia; New York, N.Y.) equilibrated in buffer A (50 mM Hepes, pH 7.4, 10% glycerol, 1 mM DTT) at room temperature. Samples of FLAG-affinity purified enzyme (10-100 μg) were syringe-passed through a 0.22 μm (pore-size) filter before loading on the column. A linear salt gradient was applied (0-500 mM in 3 mL at 100 μl/min) and 100 μl fractions were collected and analyzed by SDS-PAGE and for CKI activity. Fractions with peak activity were retained for further analysis. The degree of purity of the partially purified FLAGTgCKIα was estimated by densitometry of silver stained SDS-PAGE gels. A recombinant rat CKIδ enzyme used for control purposes was obtained from New England Biolabs.

The test system of data set [2] is T. gondii tachyzoites. The data set can be described thus: [3H]-uracil uptake assay of parasite growth inhibition in infected HFF cell monolayers. The note with it: for activity against cultured T. gondii parasites: uracil uptake / whole cell assay; for IC50: read-out: IC50 against T. gondii in the uracil uptake assay. It counts as cell-based, Toxoplasma gondii. An excerpt: (§4) Host cells and parasite cultures—RH strain or RH ΔHXGPRT strain tachyzoites of T. gondii were maintained by serial passage in confluent monolayers of human foreskin fibroblasts (“HFF”) as described (Roos, D. S. et al., 1994, Methods Cell Biol. 45:27-63). A modified [^3H]-uracil uptake assay (Pfefferkorn, E. R. and Pfefferkorn, L. C., 1977, J. Protozool. 24:449-453) adapted for use in 96-well scintillation plates (Cytostar-T, Amersham; Piscataway, N.J.) was used to measure parasite growth inhibition. Each well, previously seeded with HFF cells, was inoculated with T. gondii tachyzoites (2×10^4) in 200 μl of growth media containing 2 μCi [5,6]-^3H-uracil (Perkin-Elmer NEN; Boston, Mass.) and serially diluted compound. Following incubation at 37° C. for 36-48 hours, tritium-incorporation into host cell monolayers was directly counted in a microplate scintillation counter (MicroBeta, PerkinElmer-Wallac).

In data set [3] the target is EtCKIα (Eimeria tenella, UniProt Q6QNL9). The data set can be described thus: Casein kinase assay, partially purified native EtCKIα. It counts as biochemical. The following applies: native enzyme. On the procedure: (§5) Protein kinase assays—Casein kinase activity was assayed essentially as described (Donald, R. G. K. et al., 2002, supra) using 96-well phosphocellulose plates (MAPH-NOB, Millipore; Billerica, Mass.) to capture ^33P-phosphorylated peptide or casein substrates. Kinase reactions were carried out in 40 μl volumes containing 25 mM Hepes, pH 7.4, 10 mM MgCl2, 20 mM β-glycerophosphate, 1 mM DTT, 250 μM substrate, 1 mg/mL BSA, 2 μM ATP, and 0.01 μM [γ-^33P]ATP (Perkin-Elmer, 3000 Ci/mmol). The reactions were initiated by the addition of enzyme and incubated at room temperature for 60 min. Casein (5% solution), partially dephosphorylated α-casein and β-casein were obtained from Sigma.
as §2
Partial purification of native EtCKIα—The inability to stably express recombinant EtCKIα in T. gondii provided impetus to purify native enzyme from E. tenella parasites (slide 5). A lysate was prepared from 2×10^10 unsporulated oocysts using previously published procedures (Gurnett, A. M. et al., 2002, supra). The first two steps of the purification scheme used were essentially scaled-up from the method described for the purification of native TgCKIα. The lysate was subjected to preparative HiLoad Q anion-exchange chromatography and fractions eluted with a NaCl gradient (0-1 M NaCl). […]

Data set [4] deals with T1, TgCKIα (Toxoplasma gondii, UniProt Q6QNM1). As to the kind of experiment: Casein kinase assay, TgCKIα (recombinant FLAGTgCKIα or partially purified native). In kind it is biochemical. Also noted: other: recombinant or native forms of TgCKIα. On the procedure:
as §1, §2
Purification of recombinant CKI enzymes—E. coli strain BL21 Origami™ (Novagen) was transformed with FLAGTgCKIα and FLAGTgCKIβ expression vectors, and colonies were expanded into 250 mL LB cultures grown at 37° C. […] Protein was measured with a micro-BCA reagent (Pierce) following a TCA-sodium deoxycholate step to remove residual FLAG peptide (Brown et al., 1989, Anal. Biochem. 180:136-139). […]
(§6) Preparations of FLAGTgCKIα and FLAGTgCKIβ were purified further on a SMART system FPLC 0.1 mL MonoQ anion exchange column (Pharmacia; New York, N.Y.) equilibrated in buffer A (50 mM Hepes, pH 7.4, 10% glycerol, 1 mM DTT) at room temperature. […] A linear salt gradient was applied (0-500 mM in 3 mL at 100 μl/min) and 100 μl fractions were collected and analyzed by SDS-PAGE and for CKI activity. […]

Data set [5] relates to T. gondii. The data set can be described thus: Parasite growth inhibition, modified [3H]-uracil uptake assay in infected HFF cell monolayers. The following applies: for activity against T. gondii in the uracil uptake (whole cell) assay: cultured parasites, in words. In kind it is cell-based, Toxoplasma gondii.
Excerpt: as §4
The only other CDK inhibitor with sub-μM activity against T. gondii was indirubin-3′-monoxime, which gave an IC50 value of 500 nM.

For data set [6], the target named is T2, TgCDPK1 (Toxoplasma gondii, UniProt Q9BJF5).
T2 construct: The TgCDPK1 open reading frame was amplified by PCR from a Toxoplasma cDNA library; made in house
The data set can be described thus: CDPK assay with Syntide-2, T. gondii CDPK1. In kind it is biochemical. The following applies: read-out: IC50 against the CDPK1 enzyme. How it is done: as §5, §2
Purification of recombinant TgCDPK1 and TgPKG—The TgCDPK1 open reading frame was amplified by PCR from a Toxoplasma cDNA library, using primers based on the published sequence (Kieschnick et al., 2001, supra): sense primer, […] (SEQ ID NO:44); and, antisense primer, […] (SEQ ID NO:45). A C-terminal FLAG epitope tag was appended to the TgCDPK1 open reading frame by an additional round of PCR amplification (KOD polymerase) and the resulting DNA fragment was sub-cloned into a tubulin promoter expression vector (Donald and Liberator, 2002, supra). […]

For data set [7], the target named is T1, TgCKIα. The data set can be described thus: Casein kinase assay, TgCKIα (recombinant FLAGTgCKIα or partially purified native). The following applies: substrate titration, 2 μM ATP; read-out: Km(app), native TgCKIα. Also noted: Km(app), native TgCKIα; other: substrate titration, 2 μM ATP; IC50, nativeTgCKIα; other: partially purified native enzyme from Toxoplasma tachyzoites; sensitivity of native TgCKIα phosphopeptide kinase activity (HiTrapQ fractions 5-9); other: 0.2 μM hymenialdisine or 1. In kind it is biochemical. How it is done: as §1, §2
as §3, with “Enzyme was eluted with 5 mL of 0.4 mg/mL FLAG peptide (Sigma) in NaCl-free wash buffer and concentrated with a centrifuge filtration unit (Amicon Ultra®, 10 kDa cut-off, Millipore).” left out, “Using this procedure, and SDS-PAGE analysis, the yield of FLAGTgCKIβ was estimated as ˜200 μg of enzyme with >90% purity. Purification of FLAGTgCKIα was much less efficient with only about 1 μg of ˜10% pure enzyme obtained per 250 mL bacterial culture.” left out
as §6

The target in data set [8] is T1, TgCKIα. Described as above. In kind it is biochemical. Also noted: Vmax(app), FLAGTgCKIα; other: substrate titration, 2 μM ATP; Km(app), FLAGTgCKIα. The following applies: substrate titration, 2 μM ATP; for Km: read-out: Km(app), FLAGTgCKIα. On the procedure: as §1, §2
as §3, with “Enzyme was eluted with 5 mL of 0.4 mg/mL FLAG peptide (Sigma) in NaCl-free wash buffer and concentrated with a centrifuge filtration unit (Amicon Ultra®, 10 kDa cut-off, Millipore).” left out, “Using this procedure, and SDS-PAGE analysis, the yield of FLAGTgCKIβ was estimated as ˜200 μg of enzyme with >90% purity. Purification of FLAGTgCKIα was much less efficient with only about 1 μg of ˜10% pure enzyme obtained per 250 mL bacterial culture.” left out
as §6

T1 sequence (Q6QNM1 whole entry, looked up): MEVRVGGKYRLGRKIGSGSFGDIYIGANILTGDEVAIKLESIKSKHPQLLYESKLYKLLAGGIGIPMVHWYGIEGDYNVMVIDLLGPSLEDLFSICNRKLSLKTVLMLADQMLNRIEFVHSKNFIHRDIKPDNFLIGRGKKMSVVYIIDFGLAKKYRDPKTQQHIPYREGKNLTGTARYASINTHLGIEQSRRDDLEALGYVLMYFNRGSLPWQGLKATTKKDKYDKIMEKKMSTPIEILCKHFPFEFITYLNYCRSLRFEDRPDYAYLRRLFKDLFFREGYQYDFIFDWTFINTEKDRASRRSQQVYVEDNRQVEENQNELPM
TgCKIβ, sequence (Q6QNM0 entry or part of it): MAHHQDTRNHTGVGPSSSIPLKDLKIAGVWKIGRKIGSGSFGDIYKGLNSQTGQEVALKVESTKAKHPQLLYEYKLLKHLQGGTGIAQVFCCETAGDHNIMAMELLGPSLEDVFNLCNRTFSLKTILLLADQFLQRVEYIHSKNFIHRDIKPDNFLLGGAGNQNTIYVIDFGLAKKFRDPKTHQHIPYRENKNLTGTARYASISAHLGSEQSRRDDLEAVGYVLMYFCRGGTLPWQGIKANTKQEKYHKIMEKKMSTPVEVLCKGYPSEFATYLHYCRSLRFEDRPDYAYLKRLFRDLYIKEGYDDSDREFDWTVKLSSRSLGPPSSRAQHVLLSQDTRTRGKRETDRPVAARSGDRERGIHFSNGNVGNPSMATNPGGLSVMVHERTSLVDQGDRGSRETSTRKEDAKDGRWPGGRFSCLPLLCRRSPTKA
T2 sequence (Q9BJF5 entry or part of it): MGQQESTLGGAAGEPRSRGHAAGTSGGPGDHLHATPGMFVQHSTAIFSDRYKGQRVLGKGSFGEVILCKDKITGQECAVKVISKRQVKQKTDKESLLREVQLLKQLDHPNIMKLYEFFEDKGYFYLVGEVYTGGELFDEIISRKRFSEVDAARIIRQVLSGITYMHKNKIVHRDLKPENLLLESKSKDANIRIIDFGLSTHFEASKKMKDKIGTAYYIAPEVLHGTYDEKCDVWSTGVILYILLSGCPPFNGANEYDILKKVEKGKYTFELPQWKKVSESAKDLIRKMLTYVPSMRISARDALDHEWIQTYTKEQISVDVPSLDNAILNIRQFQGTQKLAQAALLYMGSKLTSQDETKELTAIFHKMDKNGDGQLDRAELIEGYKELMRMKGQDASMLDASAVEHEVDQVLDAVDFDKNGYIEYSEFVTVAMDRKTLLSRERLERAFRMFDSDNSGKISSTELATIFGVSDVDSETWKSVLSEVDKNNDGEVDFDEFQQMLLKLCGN
EtCKIα, sequence (Q6QNL9 whole entry): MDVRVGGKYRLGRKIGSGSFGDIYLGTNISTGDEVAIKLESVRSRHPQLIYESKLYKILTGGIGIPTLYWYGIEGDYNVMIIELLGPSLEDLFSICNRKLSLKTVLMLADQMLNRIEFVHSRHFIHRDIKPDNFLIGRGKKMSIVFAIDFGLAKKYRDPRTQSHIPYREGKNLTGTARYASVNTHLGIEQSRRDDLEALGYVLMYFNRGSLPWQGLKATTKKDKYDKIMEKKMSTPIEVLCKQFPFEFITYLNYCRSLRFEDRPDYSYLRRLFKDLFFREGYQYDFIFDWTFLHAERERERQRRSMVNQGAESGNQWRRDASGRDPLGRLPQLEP

As usually defined, the Km is the concentration of substrate that gives half-maximal velocity. In the case of RRKDLHDDEEDEAMSITA [CKI peptide], in data set [1], the “Vmax(app), FLAGTgCKIβ” value is 8 nmol/min/mg and the Km came to 15 µM.

Consider `Cn1cnc2c(NCc3ccccc3)nc(NCCO)nc21` [olomoucine], for which the “activity against cultured T. gondii parasites” value in data set [2] is given as “no activity”.

Broadly, the IC50 is the concentration that gives 50% inhibition. With `CC(C)[C@H](CO)Nc1nc(Nc2cc(N)cc(Cl)c2)c2ncn(C(C)C)c2n1` [aminopurvalanol], the IC50 in data set [2] (Toxoplasma gondii, HFF) is 0.375 µM; in data set [4] it was 0.04 to 0.06 µM. Also, the “activity against / sensitivity of EtCKIα” value in data set [3] was “good activity”.

With `CN1CCC(c2cc(-c3ccncc3)c(-c3ccc(F)cc3)[nH]2)CC1` [Compound 1], the IC50 is 0.2 µM in data set [2] (infected HFF cell monolayers, 36-48 hours) and 0.2 µM in data set [5] (Toxoplasma gondii, HFF).

In the case of indirubin-3′-monoxime, the IC50 in data set [6] was found to be 0.175 µM; in data set [4] (recombinant or native forms of TgCKIα, read-out: IC50 against TgCKIα), 0.172 µM.

For the molecule `CC[C@H](CO)Nc1nc(NCc2ccccc2)c2ncn(C(C)C)c2n1` [roscovitine], the “activity against cultured T. gondii parasites” value in data set [2] is “mediocre activity”. Besides, the “activity against T. gondii in the uracil uptake (whole cell) assay” value in data set [5] was “only mediocre activity”.

Take `CC(C)[C@H](CO)Nc1nc(Nc2cccc(Cl)c2)c2ncn(C(C)C)c2n1` [purvalanol A]: the “activity against cultured T. gondii parasites” value in data set [2] is on record as “mediocre activity”. In addition, in data set [5], the “activity against T. gondii in the uracil uptake (whole cell) assay” value is “only mediocre activity”.

B1: α-casein: partially dephosphorylated α-casein from Sigma, kinase substrate (protein)
chain: RPKHPIKHQGLPQEVLNENLLRFFVAPFPEVFGKEKVNELSKDIGSESTEDQAMEDIKQMEAESISSSEEIVPNSVEQKHIQKEDVPSERYLGYLEQLLRLKKYKVPQLEIVPNSAEERLHSMKEGIHAQQKEPMIGVNQELAYFYPELFRQFYQLDAYPSGAWYYVPLGTQYTDAPSFSDIPNPIGSENSEKTTMPLW
Consider B1, for which the Michaelis constant (Km) in data set [7] is 3 µM. In data set [1], the “Vmax(app), FLAGTgCKIβ” value was 12 nmol/min/mg and the Km came out at 5 µM. In addition, in data set [8], the “Vmax(app), FLAGTgCKIα” value was 8 nmol/min/mg and the Km came out at 4 µM.

B2: β-casein: β-casein from Sigma, kinase substrate (protein)
chain: RELEELNVPGEIVESLSSSEESITRINKKIEKFQSEEQQQTEDELQDKIHPFAQTQSLVYPFPGPIPNSLPQNIPPLTQTPVVVPPFLQPEVMGVSKVKEAMAPKHKEMPFPKYPVEPFTESQSLTLTDVENLHLPLPLLQSWMHQPHQPLPPTVMFPPQSVLSLSQSKVLPVPQKAVPYPQRDMPIQAFLLYQEPVLGPVRGPFPIIV
Consider B2, for which, in data set [7], the Km was 13 µM. In addition, in data set [1], the “Vmax(app), FLAGTgCKIβ” value stood at 16 nmol/min/mg and the Km was 12 µM. In data set [8], the “Vmax(app), FLAGTgCKIα” value was 8 nmol/min/mg and the Km worked out at 30 µM.
